# Assay results reported in paper PMC2556094 (The EMBO Journal, 2008).
# Tests used:
# [1] = target: Hsp90 (of the ITC in Supplementary Figure 1); test: ITC
# human Skp1 (human) = human Skp1 (human) (UniProt P63208); test: ITC
# His6-tagged human Hsp90β = His6-tagged human Hsp90β (human, UniProt P08238 1-724); test: pull-down
# Chain of His6-tagged human Hsp90β (P08238 whole entry): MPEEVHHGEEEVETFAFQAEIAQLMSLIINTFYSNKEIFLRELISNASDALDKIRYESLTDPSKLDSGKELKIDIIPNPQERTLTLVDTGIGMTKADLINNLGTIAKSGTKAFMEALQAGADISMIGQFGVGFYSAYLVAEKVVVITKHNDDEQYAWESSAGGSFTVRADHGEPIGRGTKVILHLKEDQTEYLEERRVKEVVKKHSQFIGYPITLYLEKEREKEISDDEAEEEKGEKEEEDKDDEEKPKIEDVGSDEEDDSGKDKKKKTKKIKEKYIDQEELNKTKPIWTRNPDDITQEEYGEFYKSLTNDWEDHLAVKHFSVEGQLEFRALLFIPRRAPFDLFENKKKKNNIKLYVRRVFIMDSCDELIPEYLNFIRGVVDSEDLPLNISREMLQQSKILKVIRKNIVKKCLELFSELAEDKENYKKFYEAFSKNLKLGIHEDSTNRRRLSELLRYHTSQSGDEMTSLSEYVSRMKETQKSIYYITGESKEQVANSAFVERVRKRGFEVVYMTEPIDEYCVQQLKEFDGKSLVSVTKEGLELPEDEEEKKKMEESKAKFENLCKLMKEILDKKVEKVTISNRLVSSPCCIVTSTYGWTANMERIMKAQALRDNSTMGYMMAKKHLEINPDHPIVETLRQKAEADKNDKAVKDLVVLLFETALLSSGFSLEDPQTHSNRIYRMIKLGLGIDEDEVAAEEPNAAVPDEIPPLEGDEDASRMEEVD
molecule,measurement,setting,value
Sgt1 (of the ITC in Supplementary Figure 1) (natural protein),stoichiometry N,[1],1
"human Sgt1, wild type (natural protein, UniProt Q9Y2Z0-2 1-333, looked up) MAAAAAGTATSQRFFQSFSDALIDEDPQAALEELTKALEQKPDDAQYYCQRAYCHILLGNYCVAVADAKKSLELNPNNSTAMLRKGICEYHEKNYAAALETFTEGQKLDSADANFSVWIKRCQEAQNGSESEVWTHQSKIKYDWYQTESQVVITLMIKNVQKNDVNVEFSEKELSALVKLPSGEDYNLKLELLHPIIPEQSTFKVLSTKIEIKLKKPEAVRWEKLEGQGDVPTPKQFVADVKNLYPSSSPYTRNWDKLVGEIKEEEKNEKLEGDAALNRLFQQIYSDGSDEVKRAMNKSFMESGGTVLSTNWSDVGKRKVEINPPDDMEWKKY",Kd,human Skp1 (human),1.64 µM
same,binding result,His6-tagged human Hsp90β,binds
